Data reported in patent US20250011448A1 (STAIDSON BIOPHARMA, published 2025).

Tests used:
[1] = target: T1, human TNFR2 extracellular domain fused to human IgG1 Fc (human, UniProt P20333 23-257); test: blocking ELISA: antibody pre-mixed with huTNFR2, binding of huTNFR2 to coated human TNFα read out
T1 construct: also called TNFR2-huFc; huTNFR2; not shown: C-terminal human IgG1 Fc
T1 sequence: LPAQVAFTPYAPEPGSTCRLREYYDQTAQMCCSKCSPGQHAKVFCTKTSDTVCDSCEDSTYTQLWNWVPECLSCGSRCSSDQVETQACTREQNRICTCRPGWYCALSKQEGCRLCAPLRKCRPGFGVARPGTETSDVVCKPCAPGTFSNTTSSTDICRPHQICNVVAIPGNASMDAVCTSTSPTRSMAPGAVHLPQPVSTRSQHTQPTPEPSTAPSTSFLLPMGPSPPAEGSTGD
Protocol: 96-well round bottom ELISA plates were coated overnight at 4° C. with 50 μL/well of 0.5 μg/mL human TNFα recombinant protein (R&D system, Cat #210-TA-100) in coating buffer. After removing the coating solution, blocking buffer was added into the plates followed by incubation at room temperature for 1 hour in order to block unspecific binding. During the blocking period, hybridoma antibodies samples were mixed with 0.5 μg/mL TNFR2-huFc at a 1:1 volume ratio and incubated at room temperature for another 1.5 hours. Then 50 μL/well of antigen-antibody mix solution was transferred into TNFα coated wells and incubated at room temperature for 1.5 hours. Plates were then washed 5 times with wash buffer. Then, 50 μL/well of goats anti-human IgG Fc-AP (Southern Biotech, cat #2014-04) at 1:2000 dilution in assay buffer was added, incubated at room temperature for 1 hour, washed 4 times with wash buffer and developed for 30 minutes with 50 μL/well of pNPP substrate. Plates were analyzed with a Synergy HT (Bio-TEK) at 405 nm. Parental hybridomas with the desired human and cynoTNFR2 binding as well as the ability to block human TNFR2 and human TNFα binding were prioritized for subcloning and further characterization. Subcloning was carried out with limited dilution and visual inspection was performed to ensure clonality. Hybridoma subclones were screened with the same binding and blocking assays and selected positive hits were cryopreserved.
TNFR2 blocking by purified recombinant chimeric antibodies: Human TNFR2 blocking ELISA was performed on purified recombinant chimeric antibodies following the same protocol as described above, except that 50 μL/well of serial dilution of purified antibodies (starting at 10 μg/mL, 1:3 dilution) in assay buffer was added into the reaction. The blocking IC₅₀ value represents the antibody concentration that inhibited 50% of huTNFR2 or cynoTNFR2 binding to coated human TNFα or cynomolgus monkey TNFα.

[2] = target: T2, human TNFR2 expressed on cells (Expi293 cells stably expressing huTNFR2) (human, UniProt P20333 23-461); test: flow cytometry on Expi293 cells stably expressing huTNFR2
T2 construct: whole, on cells; Also used here as the target of the Treg assay (native TNFR2 on human primary Treg cells); also called huTNFR2 expressed cells; Expi293-TNFR2 cells
T2 sequence (looked up): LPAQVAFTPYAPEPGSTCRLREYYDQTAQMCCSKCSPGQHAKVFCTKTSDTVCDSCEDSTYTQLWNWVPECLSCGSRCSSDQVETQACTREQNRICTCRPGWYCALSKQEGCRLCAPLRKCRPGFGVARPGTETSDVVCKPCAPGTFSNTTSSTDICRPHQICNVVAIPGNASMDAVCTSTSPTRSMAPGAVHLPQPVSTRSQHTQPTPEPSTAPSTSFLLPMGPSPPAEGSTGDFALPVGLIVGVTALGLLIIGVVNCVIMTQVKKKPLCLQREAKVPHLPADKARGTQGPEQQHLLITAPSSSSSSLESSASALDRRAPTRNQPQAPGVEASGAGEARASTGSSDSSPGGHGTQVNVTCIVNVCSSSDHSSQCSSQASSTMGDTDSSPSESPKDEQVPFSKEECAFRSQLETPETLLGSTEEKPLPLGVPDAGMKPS
Protocol: The coding sequence of huTNFR2 (Uniprot, P20333) was cloned into a lentiviral vector and the virus was packaged according to the instruction of the virus packaging kit (Lenti-X™ Packaging Single Shots, Cat #631275, Takada). The Expi293 cells were transduced with the recombinant virus and selected by puromycin. The cell line stably expressing huTNFR2 was incubated with anti-TNFR2 antibodies in PBS with 0.5% BSA, 1 mM EDTA, and 0.1% sodium azide (FACS buffer) for 30 minutes at 4° C. The cells were washed, and then incubated with 10 nM phycoerythrin (PE) conjugated anti-Human Fe Ab (Biolegend, cat #409304) for 20 minutes at 4° C. Cells were washed and then […] by flow cytometry with Attune (ThermoFisher Scientific). Data were analyzed with FlowJo software. Antibody binding is represented as median fluorescence intensity (MFI).
As shown by the results in Table 9 and FIG. 4A, the anti-TNFR2 antibodies, 51B5, 102E4, 85G8.4, 29G3, 11C1, and 15H10 bind to Expi293-TNFR2 cells dose-dependently and potently.

[3] = target: T3, human TNFR2 extracellular domain with C-terminal 10×His tag (human, UniProt P20333 23-257); test: BLI (Octet RED96), antibody captured on AHC biosensor, His-tagged TNFR2 in solution, 1:1 model
T3 construct: also called huTNFR2-His; His-tag-huTNFR2
T3 sequence: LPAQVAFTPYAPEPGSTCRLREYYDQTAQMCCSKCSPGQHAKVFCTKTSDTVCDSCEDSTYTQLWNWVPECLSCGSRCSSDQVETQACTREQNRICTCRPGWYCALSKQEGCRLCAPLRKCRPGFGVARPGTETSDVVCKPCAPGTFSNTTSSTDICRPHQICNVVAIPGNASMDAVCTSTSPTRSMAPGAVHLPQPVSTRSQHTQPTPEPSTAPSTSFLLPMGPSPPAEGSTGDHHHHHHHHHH
Protocol: The following kinetic assay was performed using anti-human IgG Fc capture (AHC) biosensors (ForteBio) in kinetics buffer (PBS, 0.1% Tween-20 and 1% bovine serum albumin): (a) antibody (2 μg/mL) for 300 sec, (b) baseline for 120 sec, (c) association with His-tag-huTNFR2 (2.5, 0.5 and 0 μg/mL) and His-tag-cynoTNFR2 (2.5, 0.5 and 0 μg/mL) for 420 sec and (d) dissociation for 1200 sec. Data fitting and analysis was performed with Octet data analysis software 8.0 (ForteBio) using a 1:1 binding model after Savitzky-Golay filtering.

[4] = target: T3, human TNFR2 extracellular domain with …; test: ELISA, plate coated with His-tagged TNFR2 ECD, serial dilution of chimeric IgG
Protocol: (§1) TNFR2 binding of purified recombinant chimeric antibodies: The huTNFR2, cynoTNFR2 antigen binding ELISA was performed on the purified recombinant chimeric antibodies. Briefly, 384-well, clear, flat bottom, high binding plates (VWR, cat #29444-096) were coated overnight at 4° C. with 1 μg/mL of huTNFR2 or cynomolgus monkey TNFR2-His in PBS. After removing the coating solution, the plates were blocked by adding blocking buffer and incubated at room temperature for 1 hour. Plates were then washed 3 times with wash buffer. Serial dilution of purified antibodies in PBS was added to individual well followed by incubation at room temperature for 1 hour. Plates were washed 3 times with wash buffer. Then 50 μL/well of goat anti hu Kappa —AP (Southern Biotech, cat #2061-04) at 1:3000 dilution or goat anti human IgG Fc-AP at 1:3000 dilution in ELISA diluent was added, incubated at room temperature for 1 hour, washed 5 times with wash buffer and developed for 30 minutes with 50 μL/well of pNPP substrate. Plates were analyzed with a Bio-TEK at 405 nm. The chimeric TNFR2 antibodies were tested positive for binding to huTNFR2 and cynoTNFR2. The TNFR2 binding EC50 values are shown in Table 6, FIG. 1A (for huTNFR2) and FIG. 1B (for cynoTNFR2).

[5] = target: T4, cynomolgus monkey TNFR2 extracellular domain with C-terminal 10×His tag (cynomolgus monkey, UniProt P20333 23-257 (human entry)); test: ELISA, plate coated with His-tagged TNFR2 ECD, serial dilution of chimeric IgG; ELISA; cynoTNFR2-His coated on plate at 1 µg/mL, bivalent IgG in solution
T4 construct: also called cynoTNFR2-His; His-tag-cynoTNFR2
T4 chain: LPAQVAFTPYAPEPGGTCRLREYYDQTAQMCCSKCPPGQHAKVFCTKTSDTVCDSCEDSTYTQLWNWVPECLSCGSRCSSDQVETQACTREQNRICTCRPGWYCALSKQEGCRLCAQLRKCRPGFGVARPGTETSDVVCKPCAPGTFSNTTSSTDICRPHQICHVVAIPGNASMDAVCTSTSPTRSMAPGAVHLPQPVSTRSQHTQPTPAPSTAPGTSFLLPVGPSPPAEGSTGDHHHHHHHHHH
Protocol: as §1

IC50 [1]: 1.13 nM
EC50 [2]: 0.819 nM
Kd [3]: 1.59 nM
koff [3]: 0.000696 s⁻¹
kon [3]: 439000 M⁻¹ s⁻¹
EC50 [4]: 0.04 nM
EC50 [5]: 0.338 nM
B1: 102E4 chimeric anti-TNFR2 antibody (antibody, V domains shown)
VH: EVLLQQSGAELVRPGASVKLSCTASGFNIKDDFIHWVQQRPEQGLEWIGRINPSNANTEYAPKFQDKATITTDTSSNTAYLQLSSLTSEDTAVYYCTRNDGYYDGLFYWGQGTTLTVSS
VL: DIVMTQSHKFMSSSVGDRVSITCKASQDVGTAVAWYQQKPGQSPKLLIYWASTRHTGVPDRFTGSGSGTDFTLTISNVQSEDLADYFCQQYSSYPFTFGSGTKLEIK
notes: Chimeric: mouse variable domains with human constant regions, made as recombinant IgG1
